According to patent US20240158497A1 (published 2024):
Each block holds one binder with its values, some of them ahead of it.

Experiments:
[1] = target: T1, human GP130 extracellular domain expressed with a C-terminal myc-myc-hexahistidine tag (human, UniProt P40189 23-619); assay: SPR, bsAb captured by anti-hFc, 25C
T1 construct: also called hGP130-MMH; hGP130-mmH
How it was run: (§1)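 Anti-hFc-captured bispecific antibodies received 3-fold serial dilutions of LEPR or GP130 (100 nM–3.7 nM) in HBS-ET, pH 7.4, injected for 4 min with 10 min dissociation at 25 °C or 37 °C. ka and kd came from a 1:1 binding model with mass transport limitation, and KD and t½ were calculated from these rate constants.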

[2] = target: T2, Macaca Fascicularis GP130 extracellular domain expressed with a C-terminal myc-myc-hexahistidine tag (Macaca fascicularis, UniProt P40189 23-619 (human entry)); assay: SPR, bsAb captured by anti-hFc, 25C
T2 construct: also called mfGP130-MMH; mfGP130-mmH
T2 chain: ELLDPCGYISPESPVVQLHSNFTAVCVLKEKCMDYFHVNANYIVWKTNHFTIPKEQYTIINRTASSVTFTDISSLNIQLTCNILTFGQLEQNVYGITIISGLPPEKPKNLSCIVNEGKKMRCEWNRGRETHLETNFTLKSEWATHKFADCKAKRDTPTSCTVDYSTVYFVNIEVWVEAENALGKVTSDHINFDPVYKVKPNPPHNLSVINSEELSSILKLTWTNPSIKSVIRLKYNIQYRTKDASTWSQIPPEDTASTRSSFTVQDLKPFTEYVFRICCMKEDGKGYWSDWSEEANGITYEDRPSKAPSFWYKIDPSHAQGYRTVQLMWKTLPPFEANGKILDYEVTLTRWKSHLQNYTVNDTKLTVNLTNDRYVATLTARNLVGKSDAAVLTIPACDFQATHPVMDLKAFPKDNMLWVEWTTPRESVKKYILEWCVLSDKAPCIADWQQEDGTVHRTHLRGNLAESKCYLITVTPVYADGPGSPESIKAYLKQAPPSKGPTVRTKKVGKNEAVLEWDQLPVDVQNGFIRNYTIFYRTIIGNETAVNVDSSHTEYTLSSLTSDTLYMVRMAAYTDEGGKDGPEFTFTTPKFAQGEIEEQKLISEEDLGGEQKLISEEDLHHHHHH
How it was run: as §1

[3] = target: T3, extracellular domain of human LEPR, GPI-anchored, on HEK293/hLEPR-GPI cells (human, UniProt P48357 22-839, GPI anchor at the C-terminus ; GPI anchor at the C-terminus, added through the carboxypeptidase M signal peptide. The N-terminal myc-myc tag is not written.); assay: FACS, 200 nM antibody on HEK293/hLEPR-GPI cells, 1 µM Leptin
T3 sequence: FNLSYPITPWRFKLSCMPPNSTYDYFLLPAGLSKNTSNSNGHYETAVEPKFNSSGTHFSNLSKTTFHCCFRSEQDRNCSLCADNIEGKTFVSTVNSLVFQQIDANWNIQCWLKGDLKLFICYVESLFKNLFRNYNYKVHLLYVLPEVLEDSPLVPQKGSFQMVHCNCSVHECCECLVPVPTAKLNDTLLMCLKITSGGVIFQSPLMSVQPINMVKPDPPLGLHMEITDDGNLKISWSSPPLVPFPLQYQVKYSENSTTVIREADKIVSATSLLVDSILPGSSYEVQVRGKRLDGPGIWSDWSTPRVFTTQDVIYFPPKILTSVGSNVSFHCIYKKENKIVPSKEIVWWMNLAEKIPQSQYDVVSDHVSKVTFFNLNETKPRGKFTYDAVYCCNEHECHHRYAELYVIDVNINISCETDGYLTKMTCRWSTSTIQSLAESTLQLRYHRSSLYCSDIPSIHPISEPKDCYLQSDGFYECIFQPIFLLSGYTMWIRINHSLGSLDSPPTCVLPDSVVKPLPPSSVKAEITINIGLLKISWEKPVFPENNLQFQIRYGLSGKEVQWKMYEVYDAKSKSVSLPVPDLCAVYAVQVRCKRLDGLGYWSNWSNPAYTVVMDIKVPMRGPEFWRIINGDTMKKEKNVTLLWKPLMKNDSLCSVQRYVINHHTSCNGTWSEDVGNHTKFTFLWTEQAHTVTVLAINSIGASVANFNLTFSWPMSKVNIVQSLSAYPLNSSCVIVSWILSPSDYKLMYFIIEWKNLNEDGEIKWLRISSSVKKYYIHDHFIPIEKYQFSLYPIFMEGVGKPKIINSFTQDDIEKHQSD
Method: For the FACS analysis, 0.5×10^6 cells/well of HEK293 parental cells, HEK293/Stat3-luc/gp130-2 X Sort cells, and HEK293/hLEPR-GPI cells, were incubated with 200 nM of the conventional antibodies against either GP130 or LEPR or with LEPRxGP130 bispecific antibodies, along with isotype control antibodies at 4° C. in PBS (without calcium and magnesium) containing 2% FBS.
Cells were fixed using BD CytoFix™ (Becton Dickinson, #554655) and analyzed on an IQue® (Intellicyt) Flow Cytometer. Unstained and secondary antibody alone controls were also tested for all cell lines. The results were analyzed using ForeCyt® (IntelliCyt) and FlowJo version 10 softwares to determine the geometric means of fluorescence for viable cells.

100 nM hGP130-MMH Bound (RU) [1]: 12 RU | Kd [1]: 140 nM | koff [1]: 0.00426 s⁻¹ | kon [1]: 30300 M⁻¹ s⁻¹ | t½ [1]: 2.7 min | 100 nM mfGP130-MMH Bound (RU) [2]: 21 RU | Kd [2]: 104 nM | koff [2]: 0.00305 s⁻¹ | kon [2]: 29400 M⁻¹ s⁻¹ | t½ [2]: 3.8 min | Binding Ratio, normalized to unstained sample (FL4-A) [3]: 3600 fold
B1: bsAb21236D (bispecific antibody, V domains shown)
VH 1: QVQLQESGPGLVKPSQTLSLTCTVSGGSISSGGDYWSWIRQLPGKGLEWIGYIYYSGSAYYNPSLKSRGTISIDTSKNQFSLKLTSVTAADTAVYFCVKLRFLEWFLGGWFGPWGQGTLVTVSS
VH 2: QVQLVESGGGLVKPGGSLRLSCAASGFTFSDYYMTWIRQTPGKGLDWVSYISSSGTNKYNADSVKGRFTISRDNAKNSLYLQMNSLRAEDTAVYYCVRDPPWGMDVWGQGTTVTVSS
VL: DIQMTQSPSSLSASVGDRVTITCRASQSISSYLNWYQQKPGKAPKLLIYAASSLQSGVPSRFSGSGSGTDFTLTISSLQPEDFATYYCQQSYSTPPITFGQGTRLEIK
notes: LEPR x GP130 bispecific with common light chain; also called H4H21236D; bsAb21236 (LEPR × GP130)

100 nM hGP130-MMH Bound (RU) [1]: 17 RU | Kd [1]: 55.2 nM | koff [1]: 0.00274 s⁻¹ | kon [1]: 49600 M⁻¹ s⁻¹ | t½ [1]: 4 min | 100 nM mfGP130-MMH Bound (RU) [2]: 18 RU | Kd [2]: 53.4 nM | koff [2]: 0.00213 s⁻¹ | kon [2]: 39800 M⁻¹ s⁻¹ | t½ [2]: 5 min | Binding Ratio, normalized to unstained sample (FL4-A) [3]: 5930 fold
B2: bsAb21237D (bispecific antibody, V domains shown)
VH 1: EVQLVESGGGLVQPGGSLRLSCAASGFTFSNYGMTWVRQAPGKGLEWVSAITGGGGSTYYSNSVKGRFTISRDNSKNTVYLRMNSVRAEDTAVYYCAKYKWNFVDDWGQGTTVTVSS
VH 2: B1 VH 2
VL: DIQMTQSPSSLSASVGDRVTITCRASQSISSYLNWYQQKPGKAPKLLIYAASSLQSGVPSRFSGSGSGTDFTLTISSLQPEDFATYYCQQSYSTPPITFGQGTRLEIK
notes: LEPR x GP130 bispecific with common light chain; also called H4H21237D; bsAb21237 (LEPR × GP130)
